Source: the supplement of paper PMC10724198
± gives the standard deviation of the averaged measurements.

Experiments:
[1] = test system: Saccharomyces cerevisiae; experiment: protein stability index of tFT-peptide fusion (C-terminal peptide) (PSI (0-1 scale)); higher = more stable (slower turnover)
Procedure: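 MPS profiling in S. cerevisiae of the tFT-X12 degron library: putative degron peptides plus stable controls, 12 aa, fused to the C-terminus of a sfGFP-mCherry timer. Cells are FACS-sorted into 8 mCherry/sfGFP bins and deep-sequenced. PSI runs from 0 (unstable) to 1 (stable). Backgrounds are wild type, das1Δ and doa10Δ at 30 °C, and wild type, das1Δ, cdc34-1 and cdc53-1 at 37 °C; 2-3 technical replicates each.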

[2] = test system: Saccharomyces cerevisiae; experiment: as above; settings: genetic background: wild type; temperature: 30 C
[3] = genetic background: cdc34-1, temperature: 37 C
[4] = genetic background: cdc53-1, temperature: 37 C
[5] = genetic background: das1 deletion, temperature: 30 C
[6] = genetic background: das1 deletion, temperature: 37 C
[7] = genetic background: doa10 deletion, temperature: 30 C
[8] = genetic background: wild type, temperature: 30 C
[9] = genetic background: wild type, temperature: 37 C
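Also: PSI is a weighted mean of sequencing reads over stability bins, variants kept only with over 10 reads, mCherry proximal and sfGFP distal, peptide attached via GGGS linker.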

| Sequence | protein stability index [1, 3] | protein stability index [1, 4] | protein stability index [1, 5] | protein stability index [1, 6] | protein stability index [1, 7] | protein stability index [1, 8] | protein stability index [1, 9] | protein stability index [2] |
| --- | --- | --- | --- | --- | --- | --- | --- | --- |
| LLGSRFVLIRSL | 0.488 ± 0.028 | 0.571 ± 0.044 | 0.462 ± 0.026 | 0.621 ± 0.012 | 0.114 ± 0.014 | 0.121 ± 0.01 | 0.161 ± 0.009 | 0.185 ± 0.017 |
| LLLRSSRLRVLS | 0.543 ± 0.064 | 0.619 ± 0.03 | 0.607 ± 0.013 | 0.6521 ± 0.005 | 0.0852 ± 0.0037 | 0.0918 ± 0.02 | 0.149 ± 0.021 | 0.176 ± 0.065 |
| LLLRWWLYSCCP | 0.411 ± 0.027 | 0.495 ± 0.012 | 0.324 ± 0.032 | 0.4667 ± 0.0026 | 0.319 ± 0.016 | 0.328 ± 0.017 | 0.478 ± 0.012 | 0.42 ± 0.034 |
| LLPFSLLDLLLC | 0.658 ± 0.028 | 0.707 ± 0.021 | 0.58 ± 0.028 | 0.681 ± 0.016 | 0.361 ± 0.029 | 0.404 ± 0.017 | 0.607 ± 0.0088 | 0.488 ± 0.066 |
| LLQCRTGLASGR | 0.685 ± 0.032 | 0.732 ± 0.043 | 0.649 ± 0.013 | 0.748 ± 0.0087 | 0.652 ± 0.029 | 0.656 ± 0.043 | 0.718 ± 0.043 | 0.518 ± 0.13 |
| LLSGLVFVFVLG | 0.293 ± 0.01 | 0.405 ± 0.026 | 0.238 ± 0.04 | 0.445 ± 0.0072 | 0.204 ± 0.0027 | 0.236 ± 0.028 | 0.425 ± 0.014 | 0.318 ± 0.02 |
| LLSILSSLPLSR | 0.579 ± 0.04 | 0.6106 ± 0.0022 | 0.585 ± 0.043 | 0.7073 ± 0.0042 | 0.654 ± 0.033 | 0.589 ± 0.024 | 0.656 ± 0.029 | 0.576 ± 0.12 |
| LLVFSLLRPFLF | 0.615 ± 0.072 | 0.643 ± 0.018 | 0.567 ± 0.039 | 0.6602 ± 0.0048 | 0.414 ± 0.028 | 0.417 ± 0.023 | 0.5623 ± 0.003 | 0.501 ± 0.016 |
| LLVLRQYFFFFV | 0.462 ± 0.026 | 0.531 ± 0.013 | 0.468 ± 0.035 | 0.606 ± 0.017 | 0.238 ± 0.012 | 0.224 ± 0.022 | 0.401 ± 0.011 | 0.295 ± 0.027 |
| LPCPPSPASLPR | 0.676 ± 0.0092 | 0.7154 ± 0.0027 | 0.447 ± 0.013 | 0.634 ± 0.0069 | 0.437 ± 0.013 | 0.448 ± 0.0041 | 0.59 ± 0.019 | 0.498 ± 0.0076 |
| LPHIFFCLFSLL | 0.582 ± 0.045 | 0.611 ± 0.047 | 0.562 ± 0.05 | 0.657 ± 0.066 | 0.203 ± 0.01 | 0.215 ± 0.024 | 0.317 ± 0.015 | 0.289 ± 0.026 |
| LPPFRFSLPFRR | 0.692 ± 0.044 | 0.7531 ± 0.0018 | 0.671 ± 0.013 | 0.705 ± 0.023 | 0.64 ± 0.024 | 0.658 ± 0.019 | 0.71 ± 0.036 | 0.712 ± 0.019 |
| LPWLLLISFSYR | 0.149 ± 0.017 | 0.25 ± 0.037 | 0.202 ± 0.029 | 0.38 ± 0.0051 | 0.171 ± 0.0091 | 0.188 ± 0.029 | 0.378 ± 0.061 | 0.286 |
| LQSYIFSVRGIS | 0.707 ± 0.02 | 0.697 ± 0.018 | 0.601 ± 0.029 | 0.707 ± 0.029 | 0.418 ± 0.054 | 0.45 ± 0.046 | 0.638 ± 0.0012 | 0.533 ± 0.078 |
| LRMMLLVTIILE | 0.0571 ± 0.0011 | 0.115 ± 0.0084 | 0.107 ± 0.028 | 0.216 ± 0.0072 | 0.0875 ± 0.023 | 0.0921 ± 0.025 | 0.198 ± 0.026 | 0.188 ± 0.037 |
| LRVGVRSWGGKW | 0.4323 ± 0.0013 | 0.5125 ± 0.0013 | 0.4299 ± 0.0014 | 0.4369 ± 0.002 | 0.439 ± 0.013 | 0.4346 ± 0.0031 | 0.439 ± 0.014 | 0.433 ± 0.0069 |
| LSFYLRAVRASL | 0.777 ± 0.092 | 0.782 ± 0.009 | 0.629 ± 0.015 | 0.7101 ± 0.0032 | 0.562 ± 0.037 | 0.565 ± 0.027 | 0.673 ± 0.015 | 0.522 ± 0.035 |
| LSLFPFLPSPCP | 0.736 ± 0.03 | 0.777 ± 0.0099 | 0.671 ± 0.009 | 0.752 ± 0.035 | 0.674 ± 0.036 | 0.669 ± 0.021 | 0.744 ± 0.018 | 0.748 ± 0.07 |
| LSRSAGVGVWVG | 0.65 ± 0.01 | 0.72 ± 0.019 | 0.647 ± 0.0099 | 0.731 ± 0.013 | 0.243 ± 0.018 | 0.283 ± 0.022 | 0.553 ± 0.026 | 0.391 ± 0.073 |
| LSTFFIFLRILR | 0.289 ± 0.028 | 0.218 ± 0.0087 | 0.324 ± 0.04 | 0.4436 ± 0.0022 | 0.517 ± 0.021 | 0.342 ± 0.028 | 0.436 ± 0.05 | 0.367 ± 0.028 |

| Sequence | protein stability index [1, 3] | protein stability index [1, 4] | protein stability index [1, 5] | protein stability index [1, 6] | protein stability index [1, 7] | protein stability index [1, 8] | protein stability index [1, 9] | protein stability index [2] |
| --- | --- | --- | --- | --- | --- | --- | --- | --- |
| LVFLYFHFCCGF | 0.4768 ± 0.0043 | 0.4909 ± 0.0032 | 0.394 ± 0.026 | 0.543 ± 0.024 | 0.399 ± 0.017 | 0.386 ± 0.013 | 0.5313 ± 0.0006 | 0.485 ± 0.017 |
| LVFPPVPSLVLC | 0.261 ± 0.018 | 0.278 ± 0.0066 | 0.277 ± 0.036 | 0.376 ± 0.013 | 0.192 ± 0.0059 | 0.223 ± 0.029 | 0.3099 ± 0.0013 | 0.352 ± 0.0088 |
| LVFPRWACSLVF | 0.344 ± 0.0079 | 0.3661 ± 0.0021 | 0.307 ± 0.025 | 0.426 ± 0.0075 | 0.263 ± 0.0029 | 0.288 ± 0.037 | 0.406 ± 0.019 | 0.3762 ± 0.00049 |
| LVFRVSLVEVVL | 0.2142 ± 0.0015 | 0.299 ± 0.0071 | 0.232 ± 0.028 | 0.36 ± 0.01 | 0.196 ± 0.0062 | 0.214 ± 0.029 | 0.334 ± 0.014 | 0.32 ± 0.014 |
| LVGLLASWLRFN | 0.579 ± 0.052 | 0.6987 ± 0.001 | 0.672 ± 0.0051 | 0.773 ± 0.017 | 0.12 ± 0.0057 | 0.137 ± 0.012 | 0.199 ± 0.061 | 0.137 ± 0.039 |
| LVLALTPFLHSF | 0.639 ± 0.01 | 0.701 ± 0.017 | 0.638 ± 0.021 | 0.727 ± 0.012 | 0.239 ± 0.0075 | 0.284 ± 0.018 | 0.551 ± 0.0073 | 0.399 ± 0.0069 |
| LVLSVWFFNCTS | 0.485 ± 0.0093 | 0.569 ± 0.021 | 0.422 ± 0.032 | 0.573 ± 0.022 | 0.277 ± 0.0063 | 0.283 ± 0.039 | 0.5196 ± 0.0025 | 0.424 ± 0.021 |
| LVRFYGPLPPFP | 0.688 ± 0.047 | 0.7613 ± 0.0063 | 0.664 ± 0.029 | 0.757 ± 0.011 | 0.656 ± 0.016 | 0.66 ± 0.011 | 0.729 ± 0.011 | 0.7258 ± 0.0068 |
| LVRGGLTNLFLF | 0.664 ± 0.046 | 0.78 ± 0.019 | 0.644 ± 0.024 | 0.7829 ± 0.0056 | 0.181 ± 0.0012 | 0.194 ± 0.032 | 0.47 ± 0.016 | 0.316 ± 0.032 |
| LWFFVVVVVRWV | 0.102 ± 0.014 | 0.135 ± 0.0081 | 0.149 ± 0.032 | 0.2611 ± 0.0017 | 0.139 ± 0.019 | 0.136 ± 0.027 | 0.183 ± 0.03 | 0.189 ± 0.053 |
| LWRFFFVAFVGI | 0.446 ± 0.0079 | 0.509 ± 0.024 | 0.377 ± 0.034 | 0.55 ± 0.0084 | 0.359 ± 0.0076 | 0.357 ± 0.021 | 0.515 ± 0.018 | 0.421 ± 0.025 |
| MALAVRVVFCGA | 0.3299 ± 0.0012 | 0.338 ± 0.0067 | 0.275 ± 0.032 | 0.436 ± 0.015 | 0.227 ± 0.0095 | 0.27 ± 0.025 | 0.418 ± 0.01 | 0.371 ± 0.058 |
| MALAVRVVICGA | 0.0365 ± 0.01 | 0.11 ± 0.097 | 0.134 ± 0.015 | 0.172 ± 0.011 | 0.103 ± 0.012 | 0.107 ± 0.019 | 0.134 ± 0.026 | 0.169 ± 0.0098 |
| MLCVFVFIWYFV | 0.235 ± 0.03 | 0.279 ± 0.013 | 0.254 ± 0.011 | 0.359 ± 0.0048 | 0.218 ± 0.013 | 0.208 ± 0.024 | 0.307 ± 0.02 | 0.235 ± 0.011 |
| MLFALLTIVFLG | 0.241 ± 0.031 | 0.3263 ± 0.0015 | 0.242 ± 0.024 | 0.388 ± 0.0085 | 0.166 ± 0.0093 | 0.182 ± 0.015 | 0.30056 ± 0.00017 | 0.295 ± 0.016 |
| MLTYVVRSLVGY | 0.484 ± 0.0066 | 0.4954 ± 0.0015 | 0.37 ± 0.045 | 0.527 ± 0.011 | 0.331 ± 0.017 | 0.375 ± 0.023 | 0.496 ± 0.018 | 0.422 ± 0.029 |
| MWFVGLCLHFFM | 0.472 ± 0.029 | 0.5504 ± 0.0014 | 0.409 ± 0.024 | 0.546 ± 0.035 | 0.344 ± 0.0067 | 0.364 ± 0.017 | 0.499 ± 0.019 | 0.3985 ± 0.0019 |
| NAGSHHAAVKLG | 0.664 ± 0.064 | 0.74 ± 0.027 | 0.6411 ± 0.0016 | 0.7163 ± 0.001 | 0.222 ± 0.018 | 0.266 ± 0.023 | 0.502 ± 0.012 | 0.399 ± 0.06 |
| NCMGLLMPLLIT | 0.437 ± 0.024 | 0.391 ± 0.0086 | 0.378 ± 0.039 | 0.504 ± 0.019 | 0.2688 ± 0.00028 | 0.254 ± 0.037 | 0.382 ± 0.012 | 0.353 ± 0.0039 |
